# Data as given in article PMC7370943.
# Legend:
# [1] = molecular target: recombinant human IL-13 (human) (UniProt P35225)
# [2] = molecular target: T1, recombinant human IL-33 (human)
# T1 sequence (O95760 whole entry, looked up): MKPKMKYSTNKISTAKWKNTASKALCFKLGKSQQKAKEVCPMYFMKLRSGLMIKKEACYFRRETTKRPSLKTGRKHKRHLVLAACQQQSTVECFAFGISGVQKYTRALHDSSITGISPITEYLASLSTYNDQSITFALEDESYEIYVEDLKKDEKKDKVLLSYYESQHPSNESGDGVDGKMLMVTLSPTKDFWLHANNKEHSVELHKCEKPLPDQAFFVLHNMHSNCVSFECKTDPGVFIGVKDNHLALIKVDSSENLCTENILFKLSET
# UniProt P35225, sequence (P35225 25-146): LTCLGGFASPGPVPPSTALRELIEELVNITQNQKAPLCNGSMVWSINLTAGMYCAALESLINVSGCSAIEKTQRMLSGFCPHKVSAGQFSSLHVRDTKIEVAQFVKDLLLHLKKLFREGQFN
IC50 of inhibition of IL-13-induced STAT6-dependent luciferase activity in HEK293T cells transfected with human IL-4Rα and IL-13Rα1; cytokine pre-incubated with the trap [1] [nM],IC50 of inhibition of IL-33-induced NF-κB luciferase reporter activity in HEK293T cells transfected with human ST2; IL-33 pre-incubated 30 min with the trap (blocks IL-33 acting on ST2 of the cells) [2] [nM],Substance
–,0.194,human IL-33trap with 7xGGS linker (sIL-1RAcP-7xGGS-sST2) (from UniProt Q01638 19-328) (receptor)
–,0.057,human IL-33trap with 12xGGS linker and human IgG1 Fc (from UniProt Q9NPH3 21-367; Q01638 19-328) (Fc fusion)

# Further lines, the substance ahead of its results:
Substance,IC50 of inhibition of IL-13-induced STAT6-dependent luciferase activity in HEK293T cells transfected with human IL-4Rα and IL-13Rα1; cytokine pre-incubated with the trap [1] [nM],IC50 of inhibition of IL-33-induced NF-κB luciferase reporter activity in HEK293T cells transfected with human ST2; IL-33 pre-incubated 30 min with the trap (blocks IL-33 acting on ST2 of the cells) [2] [nM]
human IL-4/13trap (from UniProt P78552 22-343; P24394 26-232) (receptor),0.434,–
human IL-33trap with 7xGGS linker and human IgG1 Fc (from UniProt Q9NPH3 21-367; Q01638 19-328) (Fc fusion),–,0.067
human IL-33trap with 12xGGS linker (sIL-1RAcP-12xGGS-sST2) (from UniProt Q01638 19-328) (receptor),–,0.042
human IL-33trap without Fc and GGS linker (sIL-1RAcP-sST2) (from UniProt Q01638 19-328) (receptor),–,0.748
human IL-33trap without GGS linker fused to human IgG1 Fc (sIL-1RAcP-sST2-Fc) (from UniProt Q01638 19-328) (Fc fusion),–,0.09
